In PMC9941103:
“And” between values parts separate entries of the source, which are not always exact repeats. Equal values may be shown once.

What was measured:
[1] = target: SNARE:Complexin-1 complex (UniProt P60881); assay: native MS; equimolar Complexin-1 added to the pre-assembled SNARE complexes
[2] = target: fully assembled ternary SNARE complex (SNAP25:Syntaxin-1A:Synaptobrevin-2, 3Q:1R) (UniProt P60881); assay: native MS; 1.2 molar excess of Synaptobrevin-2 added to pre-assembled binary SNAP25:Syntaxin-1A complexes (1:2 mix), analysed directly
[3] = target: fully assembled ternary SNARE complex (SNAP25:Syntaxin-1A:Synaptobrevin-2, 3Q:1R) (UniProt P60881); assay: native MS; Synaptobrevin-2, SNAP25 and Syntaxin-1A mixed 1:1:1, incubated overnight
[4] = target: fully assembled ternary SNARE complex (SNAP25:Syntaxin-1A:Synaptobrevin-2, 3Q:1R) (UniProt P60881); assay: native MS; equimolar Syntaxin-1A added to the pre-assembled 2:1 SNAP25:Synaptobrevin-2 complex
[5] = target: pre-assembled binary SNAP25:Syntaxin-1A complex (1:2, 4Q:0R) (UniProt P60881); assay: native MS; SNAP25 and Syntaxin-1A mixed 1:2; 200 mM ammonium acetate

SNARE:Complexin-1 complex (from UniProt P60881 1-206; P32851 1-262; P63045 1-96; P63041 1-134)
stoichiometry N [1]: 2

fully assembled ternary SNARE complex (SNAP25:Syntaxin-1A:Synaptobrevin-2, 3Q:1R) (from UniProt P60881 1-206; P32851 1-262; P63045 1-96)
stoichiometry N [2]: 2 and 3
stoichiometry N [3]: 2 and 3
stoichiometry N [4]: 2 and 3 and 4

pre-assembled binary SNAP25:Syntaxin-1A complex (1:2, 4Q:0R) (from UniProt P60881 1-206; P32851 1-262)
stoichiometry N [5]: 2
